Source: patent publication US20040072184

Experiments:
[1] = molecular target: T1, Calmodulin Dependent Protein Kinase Substrate
T1 chain: PLSRTLSVSS

[2] = molecular target: T2, Syntide 2
T2 chain: PLARTLSVAGLPGKK

[3] = molecular target: T3, CREBtide
T3 chain: KRREILSRRPSYR

[4] = molecular target: PDK1 peptide
[5] = molecular target: T4, PKB-sub peptide
T4 chain: CKRPRAASFAE

[6] = molecular target: Histone H1
[7] = molecular target: MBP
[8] = molecular target: T5, GST-SGK2 fusion protein
T5 chain: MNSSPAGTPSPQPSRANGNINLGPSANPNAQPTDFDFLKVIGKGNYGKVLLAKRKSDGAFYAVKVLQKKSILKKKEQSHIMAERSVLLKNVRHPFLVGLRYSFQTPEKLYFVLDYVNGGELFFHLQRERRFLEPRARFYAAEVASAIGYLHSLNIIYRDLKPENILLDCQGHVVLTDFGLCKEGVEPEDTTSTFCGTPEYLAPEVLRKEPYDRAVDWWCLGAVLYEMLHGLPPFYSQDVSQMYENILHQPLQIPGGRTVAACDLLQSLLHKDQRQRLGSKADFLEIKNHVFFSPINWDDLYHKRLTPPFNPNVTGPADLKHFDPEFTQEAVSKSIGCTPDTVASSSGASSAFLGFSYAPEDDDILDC

Chain of PDK1 peptide (chain, as listed by the source): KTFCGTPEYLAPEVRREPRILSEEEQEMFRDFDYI

B1: X-press-CaMK-X1 fusion protein (protein)
chain: MGRKEEDDCSSWKKQTTNIRKTFIFMEVLGSGAFSEVFLVKQRLTGKLFALKCIKKSPAFRDSSLENEIAVLKKIKHENIVTLEDIYESTTHYYLVMQLVSGGELFDRILERGVYTEKDASLVIQQVLSAVKYLHENGIVHRDLKPENLLYLTPEENSKIMITDFGLSKMEQNGIMSTACGTPGYVAPEVLAQKPYSKAVDCWSIGVITYILLCGYPPFYEETESKLFEKIKEGYYEFESPFWDDISESAKDFICHLLEKDPNERYTCEKALSHPWIDGNTALHRDIYPSVSLQIQKNFAKSKWRQAFNAAAVVHHMRKLHMNLHSPGVRPEVENRPPETQASETSRPSSPEITITEAPVLDHSVALPALTQLPCQHGRRPTAPGGRSLNCLVNGSLHISSSLVPMHQGSLAAGPCGCCSSCLNIGSKGKSSYCSEPTLLKKANKKQNFKSEVMVPVKASGSSHCRAGQTGVCLIM
in vitro kinase assay (32P incorporation) with immunoprecipitated CaMK-X1 [1]: CaMK-X1 could not phosphorylate control peptide | in vitro kinase assay (32P incorporation) with immunoprecipitated CaMK-X1 [2]: CaMK-X1 phosphorylated CREBtide and Syntide 2 in vitro | in vitro kinase assay (32P incorporation) with immunoprecipitated CaMK-X1 [3]: CaMK-X1 phosphorylated CREBtide and Syntide 2 in vitro

B2: Histidine tagged CaMK-X1 expressed in Sf9 cells (protein)
chain: MGRKEEDDCSSWKKQTTNIRKTFIFMEVLGSGAFSEVFLVKQRLTGKLFALKCIKKSPAFRDSSLENEIAVLKKIKHENIVTLEDIYESTTHYYLVMQLVSGGELFDRILERGVYTEKDASLVIQQVLSAVKYLHENGIVHRDLKPENLLYLTPEENSKIMITDFGLSKMEQNGIMSTACGTPGYVAPEVLAQKPYSKAVDCWSIGVITYILLCGYPPFYEETESKLFEKIKEGYYEFESPFWDDISESAKDFICHLLEKDPNERYTCEKALSHPWIDGNTALHRDIYPSVSLQIQKNFAKSKWRQAFNAAAVVHHMRKLHMNLHSPGVRPEVENRPPETQASETSRPSSPEITITEAPVLDHSVALPALTQLPCQHGRRPTAPGGRSLNCLVNGSLHISSSLVPMHQGSLAAGPCGCCSSCLNIGSKGKSSYCSEPTLLKKANKKQNFKSEVMVPVKASGSSHCRAGQTGVCLIM
in vitro kinase assay (32P incorporation) with Ni2+ column purified CaMK-X1 [1]: Syntide 2and CREBtide had higher incorporation of ^32p than the control peptide | in vitro kinase assay (32P incorporation) with Ni2+ column purified CaMK-X1 [2]: CREBtide and Syntide 2 are phosphorylated by the purified CaMK-X1 | in vitro kinase assay (32P incorporation) with Ni2+ column purified CaMK-X1 [3]: CREBtide and Syntide 2 are phosphorylated by the purified CaMK-X1

B3: GST-SGK2 fusion protein (protein)
chain: MNSSPAGTPSPQPSRANGNINLGPSANPNAQPTDFDFLKVIGKGNYGKVLLAKRKSDGAFYAVKVLQKKSILKKKEQSHIMAERSVLLKNVRHPFLVGLRYSFQTPEKLYFVLDYVNGGELFFHLQRERRFLEPRARFYAAEVASAIGYLHSLNIIYRDLKPENILLDCQGHVVLTDFGLCKEGVEPEDTTSTFCGTPEYLAPEVLRKEPYDRAVDWWCLGAVLYEMLHGLPPFYSQDVSQMYENILHQPLQIPGGRTVAACDLLQSLLHKDQRQRLGSKADFLEIKNHVFFSPINWDDLYHKRLTPPFNPNVTGPADLKHFDPEFTQEAVSKSIGCTPDTVASSSGASSAFLGFSYAPEDDDILDC
in vitro kinase assay (32P incorporation) with purified SGK2 [4]: addition of same amount of control peptide (PDK1 peptide) had no significant incorporation | in vitro kinase assay (32P incorporation) with purified SGK2 [5]: PKB-sub had significant incorporation of ^32P

B4: GST-DM-PK fusion protein (protein)
chain: MSAEVRLRRLQQLVLDPGFLGLEPLLDLLLGVHQELGASELAQDKYVADFLQWAEPIVVRLKEVRLQRDDFEILKVIGRGAFSEVAVVKMKQTGQVYAMKIMNKWDMLKRGEVSCFREERDVLVNGDRRWITQLHFAFQDENYLYLVMEYYVGGDLLTLLSKFGERIPAEMARFYLAEIVMAIDSVHRLGYVHRDIKPDNILLDRCGHIRLADFGSCLKLRADGTVRSLVAVGTPDYLSPEILQAVGGGPGTGSYGPECDWWALGVFAYEMFYGQTPFYADSTAETYGKIVHYKEHLSLPLVDEGVPEEARDFIQRLLCPPETRLGRGGAGDFRTHPFFFGLDWDGLRDSVPPFTPDFEGATDTCNFDLVEDGLTAMVSGGGETLSDIREGAPLGVHLPFVGYSYSCMALRDSEVPGPTPMEVEAEQLLEPHVQAPSLEPSVSPQDETAEVAVPAAVPAAEAEAEVTLRELQEALEEEVLTRQSLSREMEAIRTDNQNFASQLREAEARNRDLEAHVRQLQERMELLQAEGATAVTGVPSPRATDPPSHLDGPPAVAVGQCPLVGPGPMHRRHLLLPARVPRPGLSEALSLLLFAVVLSRAAALGCIGLVAHAGQLTAVWRRPGAARAP
in vitro kinase assay with DM-PK purified from E. coli [6]: MBP and Histone H1 were both phosphorylated by purified DM-PK in these assays | in vitro kinase assay with DM-PK purified from E. coli [7]: MBP and Histone H1 were both phosphorylated by purified DM-PK in these assays

B5: His-tag PDK1 (protein)
chain: MARTTSQLYDAVPIQSSVVLCSCPSPSMVRTQTESSTPPGIPGGSRQGPAMDGTAAEPRPGAGSLQHAQPPPQPRKKRPEDFKFGKILGEGSFSTVVLARELATSREYAIKILEKRHIIKENKVPYVTRERDVMSRLDHPFFVKLYFTFQDDEKLYFGLSYAKNGELLKYIRKIGSFDETCTRFYTAEIVSALEYLHGKGIIHRDLKPENILLNEDMHIQITDFGTAKVLSPESKQARANSFVGTAQYVSPELLTEKSACKSSDLWALGCIIYQLVAGLPPFRAGNEYLIFQKIIKLEYDFPEKFFPKARDLVEKLLVLDATKRLGCEEMEGYGPLKAHPFFESVTWENLHQQTPPKLTAYLPAMSEDDEDCYGNYDNLLSQFGCMQVSSSSSSHSLSASDTGLPQRSGSNIEQYIHDLDSNSFELDLQFSEDEKRLLLEKQAGGNPWHQFVENNLILKMGPVDKRKGLFARRRQLLLTEGPHLYYVDPVNKVLKGEIPWSQELRPEAKNFKTFFVHTPNRTYYLMDPSGNAHKWCRKIQEVWRQRYQSHPDAAVQ
32P phosphorylation of SGK2 after incubation with PDK1, SDS-PAGE [8]: SGK2 activated by PKD1 was significantly phosphorylated, while non-activated SGK2 was not | in vitro kinase activity of SGK2 after activation by PDK1 [8]: the PDK1 activated SGK2 had significantly higher kinase activity compared to non-activated SGK2
